{
  "source": "patent US20160039936A1",
  "about": "“FIBROBLAST GROWTH FACTOR RECEPTOR INHIBITION FOR THE TREATMENT OF DISEASE” (UNIVERSITY OF MIAMI, priority 2011, published 2016)",
  "molecules": {"B1": {"name": "FGF23: recombinant mouse FGF23, 6His-tagged Tyr25-Val251 (Arg179Gln) (R&D Systems) (protein)", "chain": "YPDTSPLLGSNWGSLTHLYTATARTSYHLQIHRDGHVDGTPHQTIYSALMITSEDAGSVVITGAMTRRFLCMDLHGNIFGSLHFSPENCKFRQWTLENGYDVYLSQKHHYLVSLGRAKRIFQPGTNPPPFSQFLARRNEVPLLHFYTVRPRRHTQSAEDPPERDPLNVLKPRPRATPVPVSCSRELPSAEEGGPAASDPLGVLRRGRGDARGGAGGADRCRPFPRFV", "modifications": "left off: small tags and cut ends"}},
  "system": "C57BL/6 mice",
  "assay": "Intravenous injection of FGFs (with or without Fc-FGFR decoy receptors) in mice",
  "assay_type": "in vivo, mouse",
  "conditions": "FGF23 40 μg/kg i.v. twice daily 5 days",
  "description": "Twelve-week old adult C57BL/6 mice underwent tail vein injections using standard protocols as previously described for the systemic delivery of plasmid DNA (Faul et al., 2008). Briefly, mice were placed in a restrainer and 40 μg/kg of FGF23 dissolved in 200 μl of PBS were injected into the tail vein of 5 mice twice daily with eight hours in between injections for 5 consecutive days. Four mice underwent the same injection schedule using 200 μl of PBS alone as negative control. On the morning of the 6th day, 16 hours after the final tail vein injections, animals were sacrificed and the hearts were isolated and prepared using the same protocol as described above.\nShort-axis cardiac sections were used to quantify myocardial thickness by measuring the distance from the inner to the outer myocardial zone at the mid-chamber zone. […] Since klothro-ablated kl/kl mice display severe growth retardation with small hearts (Kuro-o et al., Nature, 390(6655):45-51, 1997), we also measured relative wall thickness calculated as two times the anterior wall thickness divided by left ventricular internal diameter. Total RNA was isolated from flash frozen hearts using TRIzol (Invitrogen) and RT-PCR analyses were performed as described above.\nWe measured cross-sectional surface area of cardiac myocytes in paraffin-embedded short-axis sections of the heart. Briefly, 7 μm thick sections were deparaffinized according to our established protocols. To specifically label cardiac myocytes, we used mouse monoclonal MF20 antibody against sarcomeric myosin at 1:200 and Cy5-conjugated donkey-anti mouse (Invitrogen) as secondary antibody at 1:400. To visualize nuclei, fixed tissue was incubated with 4′,6-diamidino-2-phenylindole (DAPI; 400 ng/ml in PBS) for 5 minutes. To visualize cellular borders, fixed tissue was incubated with wheat germ agglutinin (WGA) conjugated to Alexa Fluor 555 (Invitrogen) at 1 mg/ml in PBS containing 10 mM sodium azide. Immunofluorescence images were taken on a Leica TCS-SP5 confocal microscope with a 63× oil objective. Leica AF6000 fluorescence software was used to quantify cross-sectional cell surface area of 25 cells per field at four fields along the mid-chamber free wall based on WGA-positive staining.\nNext, we wanted to determine the effectiveness of this FGFR trapping system on FGF-induced LVH in mice. To our knowledge, Fc decoy receptors have not yet been used to study FGFR function in vivo in any biological context, but served as valuable tools to analyze the functions of other receptor tyrosine kinases, like receptors for vascular endothelial growth factor (VEGFR) and their role in tumor growth and metastasis. We used similar Fc-FGFR concentrations as described for Fc-VEGFR in animal models of cancer (Lin J et al., Cancer Res. 2005; 65(15):6901-9).",
  "data": [
    {"molecule": "B1", "values": [
      {"measurement": "cardiac weight/tibial length", "setting": "vs vehicle", "value": "significantly increased"},
      {"measurement": "cross-sectional surface area of individual cardiac myocytes", "setting": "vs vehicle", "value": "increased"},
      {"measurement": "expression of α-MHC and MCAD mRNA levels", "setting": "vs vehicle", "value": "decreased expression"},
      {"measurement": "expression of β-MHC, ANP and BNP", "setting": "vs vehicle", "value": "increased expression"},
      {"measurement": "left ventricular wall thickness", "setting": "vs vehicle", "value": "increased"},
      {"measurement": "FGF23 levels at the time of sacrifice", "setting": "16 hours after final injection, vs PBS", "value": "significantly increased"}
    ]}
  ]
}
